# According to publication PMC3458569 (Nucleic Acids Research, 2012):
# T1: UvrB wild type (Bacillus subtilis, UniProt P37954 1-661)
# T1 sequence: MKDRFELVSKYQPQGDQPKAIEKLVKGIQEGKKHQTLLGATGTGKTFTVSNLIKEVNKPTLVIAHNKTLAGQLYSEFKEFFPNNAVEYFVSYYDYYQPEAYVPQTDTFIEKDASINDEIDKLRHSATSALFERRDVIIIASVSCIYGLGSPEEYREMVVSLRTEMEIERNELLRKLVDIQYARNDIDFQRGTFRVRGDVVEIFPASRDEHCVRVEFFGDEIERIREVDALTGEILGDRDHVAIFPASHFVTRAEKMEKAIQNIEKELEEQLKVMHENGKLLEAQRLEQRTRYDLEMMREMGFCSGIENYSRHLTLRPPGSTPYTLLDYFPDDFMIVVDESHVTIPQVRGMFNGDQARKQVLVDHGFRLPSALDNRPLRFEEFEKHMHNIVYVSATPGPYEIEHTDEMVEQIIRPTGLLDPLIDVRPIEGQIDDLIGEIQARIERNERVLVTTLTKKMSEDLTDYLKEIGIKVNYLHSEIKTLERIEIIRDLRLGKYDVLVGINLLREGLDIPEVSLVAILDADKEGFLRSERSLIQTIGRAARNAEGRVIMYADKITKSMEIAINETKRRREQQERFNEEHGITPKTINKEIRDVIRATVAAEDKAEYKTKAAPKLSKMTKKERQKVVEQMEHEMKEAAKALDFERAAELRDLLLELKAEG
# B1: Bacillus subtilis UvrB (wild type) (natural protein)
# chain: MKDRFELVSKYQPQGDQPKAIEKLVKGIQEGKKHQTLLGATGTGKTFTVSNLIKEVNKPTLVIAHNKTLAGQLYSEFKEFFPNNAVEYFVSYYDYYQPEAYVPQTDTFIEKDASINDEIDKLRHSATSALFERRDVIIIASVSCIYGLGSPEEYREMVVSLRTEMEIERNELLRKLVDIQYARNDIDFQRGTFRVRGDVVEIFPASRDEHCVRVEFFGDEIERIREVDALTGEILGDRDHVAIFPASHFVTRAEKMEKAIQNIEKELEEQLKVMHENGKLLEAQRLEQRTRYDLEMMREMGFCSGIENYSRHLTLRPPGSTPYTLLDYFPDDFMIVVDESHVTIPQVRGMFNGDQARKQVLVDHGFRLPSALDNRPLRFEEFEKHMHNIVYVSATPGPYEIEHTDEMVEQIIRPTGLLDPLIDVRPIEGQIDDLIGEIQARIERNERVLVTTLTKKMSEDLTDYLKEIGIKVNYLHSEIKTLERIEIIRDLRLGKYDVLVGINLLREGLDIPEVSLVAILDADKEGFLRSERSLIQTIGRAARNAEGRVIMYADKITKSMEIAINETKRRREQQERFNEEHGITPKTINKEIRDVIRATVAAEDKAEYKTKAAPKLSKMTKKERQKVVEQMEHEMKEAAKALDFERAAELRDLLLELKAEG
# B2: Bacillus subtilis UvrB T481C mutant (natural protein)
# chain: MKDRFELVSKYQPQGDQPKAIEKLVKGIQEGKKHQTLLGATGTGKTFTVSNLIKEVNKPTLVIAHNKTLAGQLYSEFKEFFPNNAVEYFVSYYDYYQPEAYVPQTDTFIEKDASINDEIDKLRHSATSALFERRDVIIIASVSCIYGLGSPEEYREMVVSLRTEMEIERNELLRKLVDIQYARNDIDFQRGTFRVRGDVVEIFPASRDEHCVRVEFFGDEIERIREVDALTGEILGDRDHVAIFPASHFVTRAEKMEKAIQNIEKELEEQLKVMHENGKLLEAQRLEQRTRYDLEMMREMGFCSGIENYSRHLTLRPPGSTPYTLLDYFPDDFMIVVDESHVTIPQVRGMFNGDQARKQVLVDHGFRLPSALDNRPLRFEEFEKHMHNIVYVSATPGPYEIEHTDEMVEQIIRPTGLLDPLIDVRPIEGQIDDLIGEIQARIERNERVLVTTLTKKMSEDLTDYLKEIGIKVNYLHSEIKCLERIEIIRDLRLGKYDVLVGINLLREGLDIPEVSLVAILDADKEGFLRSERSLIQTIGRAARNAEGRVIMYADKITKSMEIAINETKRRREQQERFNEEHGITPKTINKEIRDVIRATVAAEDKAEYKTKAAPKLSKMTKKERQKVVEQMEHEMKEAAKALDFERAAELRDLLLELKAEG
# B3: Bacillus subtilis UvrB T481C mutant, spin labeled with PROXYL (natural protein)
# chain: MKDRFELVSKYQPQGDQPKAIEKLVKGIQEGKKHQTLLGATGTGKTFTVSNLIKEVNKPTLVIAHNKTLAGQLYSEFKEFFPNNAVEYFVSYYDYYQPEAYVPQTDTFIEKDASINDEIDKLRHSATSALFERRDVIIIASVSCIYGLGSPEEYREMVVSLRTEMEIERNELLRKLVDIQYARNDIDFQRGTFRVRGDVVEIFPASRDEHCVRVEFFGDEIERIREVDALTGEILGDRDHVAIFPASHFVTRAEKMEKAIQNIEKELEEQLKVMHENGKLLEAQRLEQRTRYDLEMMREMGFCSGIENYSRHLTLRPPGSTPYTLLDYFPDDFMIVVDESHVTIPQVRGMFNGDQARKQVLVDHGFRLPSALDNRPLRFEEFEKHMHNIVYVSATPGPYEIEHTDEMVEQIIRPTGLLDPLIDVRPIEGQIDDLIGEIQARIERNERVLVTTLTKKMSEDLTDYLKEIGIKVNYLHSEIKCLERIEIIRDLRLGKYDVLVGINLLREGLDIPEVSLVAILDADKEGFLRSERSLIQTIGRAARNAEGRVIMYADKITKSMEIAINETKRRREQQERFNEEHGITPKTINKEIRDVIRATVAAEDKAEYKTKAAPKLSKMTKKERQKVVEQMEHEMKEAAKALDFERAAELRDLLLELKAEG
# modifications: nitroxide spin label 3-(2-iodoacetamido)-proxyl (PROXYL) on C481
# Key:
# UvrB wild type = target: T1, UvrB wild type; experiment: X-ray crystallography
# crystal structure = target: the molecule itself; experiment: crystal structure
# Bacillus subtilis UvrA = Bacillus subtilis UvrA (Bacillus subtilis, UniProt O34863 1-957); experiment: native gel or EMSA
# cross-linking = target: the molecule itself; experiment: cross-linking
# DEER = target: the molecule itself; experiment: DEER
# Chain of Bacillus subtilis UvrA (O34863 whole entry): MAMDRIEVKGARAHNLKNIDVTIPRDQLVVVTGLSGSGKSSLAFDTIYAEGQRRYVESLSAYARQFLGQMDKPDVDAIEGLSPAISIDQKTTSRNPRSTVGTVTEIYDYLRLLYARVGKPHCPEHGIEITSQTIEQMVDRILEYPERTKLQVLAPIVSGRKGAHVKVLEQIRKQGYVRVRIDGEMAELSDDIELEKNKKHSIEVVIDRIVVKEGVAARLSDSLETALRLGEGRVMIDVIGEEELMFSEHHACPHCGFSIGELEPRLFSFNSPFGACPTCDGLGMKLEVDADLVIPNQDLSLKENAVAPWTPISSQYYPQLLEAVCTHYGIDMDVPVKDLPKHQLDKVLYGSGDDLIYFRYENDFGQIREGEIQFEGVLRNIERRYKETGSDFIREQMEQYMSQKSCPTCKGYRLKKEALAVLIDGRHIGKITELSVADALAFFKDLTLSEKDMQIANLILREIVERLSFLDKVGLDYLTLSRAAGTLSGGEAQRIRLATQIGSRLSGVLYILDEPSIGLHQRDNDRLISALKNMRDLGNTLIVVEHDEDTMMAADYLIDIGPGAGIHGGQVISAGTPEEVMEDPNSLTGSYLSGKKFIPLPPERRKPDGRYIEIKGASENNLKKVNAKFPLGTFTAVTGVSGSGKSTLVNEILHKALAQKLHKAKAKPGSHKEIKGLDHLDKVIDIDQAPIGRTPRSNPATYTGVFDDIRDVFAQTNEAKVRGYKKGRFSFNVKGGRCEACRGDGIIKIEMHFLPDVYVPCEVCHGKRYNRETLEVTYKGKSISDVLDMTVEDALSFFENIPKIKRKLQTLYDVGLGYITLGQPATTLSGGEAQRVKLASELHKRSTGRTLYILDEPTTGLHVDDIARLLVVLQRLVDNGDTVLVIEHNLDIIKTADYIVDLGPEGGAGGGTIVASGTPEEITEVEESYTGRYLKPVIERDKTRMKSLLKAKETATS
binder,measurement,setting,value
"TACTGTTT (ssDNA, T-fluorescein at position 6) [TACTG(TF6)TT 8-mer]",binding result,UvrB wild type,binds
B1,stoichiometry N,crystal structure,2
same,binding result,Bacillus subtilis UvrA,binds
B2,binding result,cross-linking,binds
B3,binding result,DEER,binds
